The values that follow come from article PMC6883840 (Proceedings of the National Academy of Sciences of the …, 2019).

Data set [1] concerns the target T1, ThrB (homoserine kinase) (Escherichia coli, UniProt P00547).
T1 sequence (P00547 1-310): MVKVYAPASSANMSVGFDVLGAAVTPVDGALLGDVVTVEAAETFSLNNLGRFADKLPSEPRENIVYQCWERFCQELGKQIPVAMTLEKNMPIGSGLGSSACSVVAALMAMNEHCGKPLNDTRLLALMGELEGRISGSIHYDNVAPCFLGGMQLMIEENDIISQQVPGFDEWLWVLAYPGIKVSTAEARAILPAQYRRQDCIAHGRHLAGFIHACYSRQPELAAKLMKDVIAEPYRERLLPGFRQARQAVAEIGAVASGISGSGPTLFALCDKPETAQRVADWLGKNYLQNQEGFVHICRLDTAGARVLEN
The data set is described as follows: […]-NMR of ATP to ADP conversion. The note with it: ATP hydrolysis without second substrate; 37 °C, 24 h. The data set is classed as biochemical.

Substrate in data set [2]: N[C@H](C(=O)O)[C@H](O)CO
Briefly: purified protein. The settings on record: reverse direction: 4-hydroxythreonine to (3R)-3,4-dihydroxy-2-oxobutanoate.

Take `Nc1ncnc2c1ncn2[C@@H]1O[C@H](COP(=O)(O)OP(=O)(O)OP(=O)(O)O)[C@@H](O)[C@H]1O` [ATP]: the “31P-NMR of ATP to ADP conversion” value in data set [1] is recorded as “hydrolysis of ATP in the active site of ThrB in the absence of a second substrate”.

B1: SerC (Escherichia coli K-12) (protein)
chain: AQIFNFSSGPAMLPAEVLKQAQQELRDWNGLGTSVMEVSHRGKEFIQVAEEAEKDFRDLLNVPSNYKVLFCHGGGRGQFAAVPLNILGDKTTADYVDAGYWAASAIKEAKKYCTPNVFDAKVTVDGLRAVKPMREWQLSDNAAYMHYCPNETIDGIAIDETPDFGADVVVAADFSSTILSRPIDVSRYGVIYAGAQKNIGPAGLTIVIVREDLLGKANIACPSILDYSILNDNGSMFNTPPTFAWYLSGLVFKWLKANGGVAEMDKINQQKAELLYGVIDNSDFYRNDVAKANRSRMNVPFQLADSALDKLFLEESFAAGLHALKGHRVVGGMRASIYNAMPLEGVKALTDFMVEFERRHG
Regarding B1, in data set [2], the Km came out at 2600 ± 700 µM and the kcat is listed as 2.0 ± 0.1 × 10^-5 s^-1.

Broadly, the Km is the substrate concentration at which the rate is half of its maximum.
